# B1: C-C chemokine receptor type 2 (Homo sapiens), P41597-2 (parent)
# chain: MLSTSRSRFIRNTNESGEEVTTFFDYDYGAPCHKFDVKQIGAQLLPPLYSLVFIFGFVGNMLVVLILINCKKLKCLTDIYLLNLAISDLLFLITLPLWAHSAANEWVFGNAMCKLFTGLYHIGYFGGIFFIILLTIDRYLAIVHAVFALKARTVTFGVVTSVITWLVAVFASVPGIIFTKCQKEDSVYVCGPYFPRGWNNFHTIMRNILGLVLPLLIMVICYSGILKTLLRCRNEKKRHRAVRVIFTIMIVYFLFWTPYNIVILLNTFQEFFGLSNCESTSQLDQATQVTETLGMTHCCINPIIYAFVGEKFRRYLSVFFRKHITKRFCKQCPVFYRETVDGVTSTNTPSTGEQEVSAGL
# partner: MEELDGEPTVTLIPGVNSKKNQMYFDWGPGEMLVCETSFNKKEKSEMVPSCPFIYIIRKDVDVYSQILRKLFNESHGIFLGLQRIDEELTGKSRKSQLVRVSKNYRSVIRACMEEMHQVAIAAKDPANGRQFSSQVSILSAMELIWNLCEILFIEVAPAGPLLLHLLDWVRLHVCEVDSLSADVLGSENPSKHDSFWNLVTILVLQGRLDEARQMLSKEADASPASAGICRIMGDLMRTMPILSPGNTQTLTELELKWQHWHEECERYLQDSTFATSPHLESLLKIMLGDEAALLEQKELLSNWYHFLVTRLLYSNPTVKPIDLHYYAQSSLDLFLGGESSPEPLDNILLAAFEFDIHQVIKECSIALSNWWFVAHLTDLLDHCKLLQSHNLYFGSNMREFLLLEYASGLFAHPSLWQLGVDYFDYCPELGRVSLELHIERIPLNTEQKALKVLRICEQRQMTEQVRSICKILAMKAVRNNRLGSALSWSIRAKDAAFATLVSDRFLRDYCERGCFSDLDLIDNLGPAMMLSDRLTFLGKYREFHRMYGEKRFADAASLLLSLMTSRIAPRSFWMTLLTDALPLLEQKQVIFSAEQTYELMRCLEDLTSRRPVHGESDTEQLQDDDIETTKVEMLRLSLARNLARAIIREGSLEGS
# Variants of: B1
# Conditions: with nup85_human NUP85, Q9BW27
row,effect of a mutation on the interaction,Variant
1,decreasing interaction strength,MLSTSRSRFIRNTNESGEEVTTFFDYDYGAPCHKFDVKQIGAQLLPPLYSLVFIFGFVGNMLVVLILINCKKLKCLTDIYLLNLAISDLLFLITLPLWAHSAANEWVFGNAMCKLFTGLYHIGYFGGIFFIILLTIDRYLAIVHAVFALKARTVTFGVVTSVITWLVAVFASVPGIIFTKCQKEDSVYVCGPYFPRGWNNFHTIMRNILGLVLPLLIMVICYSGILKTLLRCRNEKKRHRAVRVIFTIMIVYFLFWTPYNIVILLNTFQEFFGLSNCESTSQLDQATQVTETLGMTHCCINPIIYAFVGEKFRRYTSVFFRKHITKRFCKQCPVFYRETVDGVTSTNTPSTGEQEVSAGL [L316T]

# Variants of: B1
# Conditions: with nup85_human NUP85, Q9BW27
# Remark: another data set of the same source
row,effect of a mutation on the interaction,Variant
1,decreasing interaction strength,MLSTSRSRFIRNTNESGEEVTTFFDYDYGAPCHKFDVKQIGAQLLPPLYSLVFIFGFVGNMLVVLILINCKKLKCLTDIYLLNLAISDLLFLITLPLWAHSAANEWVFGNAMCKLFTGLYHIGYFGGIFFIILLTIDRYLAIVHAVFALKARTVTFGVVTSVITWLVAVFASVPGIIFTKCQKEDSVYVCGPYFPRGWNNFHTIMRNILGLVLPLLIMVICYSGILKTLLRCRNEKKRHRAVRVIFTIMIVYFLFWTPYNIVILLNTFQEFFGLSNCESTSQLDQATQVTETLGMTHCCINPIIYAFVGEKFRRYLSVDFRKHITKRFCKQCPVFYRETVDGVTSTNTPSTGEQEVSAGL [F319D]
